B1: GRF7 (14-3-3ν), recombinant (natural protein, Arabidopsis thaliana, UniProt Q96300 1-265, looked up)
chain: MSSSREENVYLAKLAEQAERYEEMVEFMEKVAKTVDTDELTVEERNLLSVAYKNVIGARRASWRIISSIEQKEESRGNDDHVSIIKDYRGKIETELSKICDGILNLLDSHLVPTASLAESKVFYLKMKGDYHRYLAEFKTGAERKEAAESTLVAYKSAQDIALADLAPTHPIRLGLALNFSVFYYEILNSPDRACSLAKQAFDEAISELDTLGEESYKDSTLIMQLLRDNLTLWNSDINDEAGGDEIKEASKHEPEEGKPAETGQ
notes: GRF7 (14-3-3ν), Arabidopsis thaliana; cloned into pMAL-c5X-His or a modified pMAL-c5X vector; also called GRF7-6His; source: E. coli, purified (Ni-NTA, size-exclusion chromatography)

The target in data set [1] is T1, MBP–FD(T282E), maltose-binding protein-fused phospho-mimic mutant FD (Arabidopsis thaliana, UniProt Q84JK2 2-285, T282E).
T1 construct: FD, bZIP transcription factor, Arabidopsis thaliana; residues 2-285; codon-optimised for E. coli; also called MBP-FD^(2–285 (T282E)); source: E. coli, purified (Ni-NTA, size-exclusion chromatography); not shown: MBP, N-terminal, kept
T1 sequence (looked up): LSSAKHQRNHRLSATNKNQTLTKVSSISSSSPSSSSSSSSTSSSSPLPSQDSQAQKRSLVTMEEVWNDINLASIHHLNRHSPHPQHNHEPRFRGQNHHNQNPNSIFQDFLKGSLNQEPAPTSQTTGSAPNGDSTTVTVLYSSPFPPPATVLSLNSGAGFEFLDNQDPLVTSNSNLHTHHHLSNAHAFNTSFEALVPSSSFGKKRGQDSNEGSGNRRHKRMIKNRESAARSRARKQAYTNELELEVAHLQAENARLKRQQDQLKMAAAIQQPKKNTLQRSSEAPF
The data set can be described thus: SEC; gel filtration of mixed purified proteins without DNA, fractions analysed on gel. Particulars: both partners purified.

Data set [2] addresses B1. The data set can be described thus: SEC-MALS; MBP–FDc(T282E) or its mutants with GRF7; 25 mM Tris-HCl pH 8.0, 160 mM NaCl, 2% glycerol; Superdex 200. Particulars: both partners purified.
Data set [3] deals with the molecule itself. Kind of data set: SEC-MALS; MBP–FDc(T282E) alone at low concentration; 25 mM Tris-HCl pH 8.0, 160 mM NaCl, 2% glycerol; Superdex 200. A general note: Size exclusion chromatography separates by hydrodynamic size, large species first.
Data set [4] concerns the molecule itself. The data set can be described thus: SEC-MALS; MBP–FDc(T282E) or its mutants with GRF7; 25 mM Tris-HCl pH 8.0, 160 mM NaCl, 2% glycerol; Superdex 200.

The values below come from PMC12711580, “Florigen activation complex forms via multifaceted assembly in Arabidopsis” (Nature, 2025).

The term stoichiometry N denotes the number of molecules, sites or subunits per partner or assembly.

B1: the binding result in data set [1] is listed as “binds”.

B2: MBP–FDc(T282E), N-terminal MBP-fused, truncated FD (amino acids 215–285) (domain or fragment, Arabidopsis thaliana, UniProt Q84JK2 215-285, looked up)
chain: NRRHKRMIKNRESAARSRARKQAYTNELELEVAHLQAENARLKRQQDQLKMAAAIQQPKKNTLQRSSEAPF
notes: FD, Arabidopsis thaliana; also called MBP-FDc^(215–285 (T282E)); source: E. coli, purified; not shown: MBP, N-terminal, kept
Take B2: the binding result in data set [2] is given as “binds”. Moreover, the “stoichiometry N” value in data set [3] was 2.

B3: MBP–FDc(T282E) Mu6 (L263A) (domain or fragment, Arabidopsis thaliana, UniProt Q84JK2 215-285, looked up)
chain: NRRHKRMIKNRESAARSRARKQAYTNELELEVAHLQAENARLKRQQDQAKMAAAIQQPKKNTLQRSSEAPF
notes: FD, Arabidopsis thaliana; amino acids 215–285; source: E. coli, purified; not shown: MBP, N-terminal, kept
Consider B3, for which the binding result in data set [2] and in data set [4] was “binds” throughout.

B4: MBP–FDc(T282E) Mu3 (L242A) (domain or fragment, Arabidopsis thaliana, UniProt Q84JK2 215-285, looked up)
chain: NRRHKRMIKNRESAARSRARKQAYTNEAELEVAHLQAENARLKRQQDQLKMAAAIQQPKKNTLQRSSEAPF
notes: FD, Arabidopsis thaliana; amino acids 215–285; L242A is printed for Mu3 only in the name of the transgene gFD::3HA-3Flag-FD^Mu3_L242A; source: E. coli, purified; not shown: MBP, N-terminal, kept
On to B4, for which, in data set [2], the “stoichiometry N” value is 1 copy of FDc(T282E) per GRF7 dimer.

B5: MBP–FDc(T282E) Mu2 (Y238A,E243A) (domain or fragment, Arabidopsis thaliana, UniProt Q84JK2 215-285, looked up)
chain: NRRHKRMIKNRESAARSRARKQAATNELALEVAHLQAENARLKRQQDQLKMAAAIQQPKKNTLQRSSEAPF
notes: as for B3
As for B5, the binding result in data set [2] and in data set [4] was “binds” in each case.
